From article PMC9130538, “Amino acids in transmembrane helix 1 confer major functional differences between human and mouse orthologs of the polyspecific membrane transporter OCT1” (The Journal of Biological Chemistry, 2022)

Columns and labels:
Assay in all cases: cells, lysate or membranes
[1] = substrate: CC(NCCc1ccc(O)cc1)C(O)c1ccc(O)cc1; details: other: HEK293 stably transfected, 2 min uptake, 37 °C, pH 7.4
[2] = substrate: CNS(=O)(=O)Cc1ccc2[nH]cc(CCN(C)C)c2c1; details: other: HEK293 stably transfected, 2 min uptake, 37 °C, pH 7.4
[3] = substrate: COc1ccc(CC(C)NCC(O)c2ccc(O)c(NC=O)c2)cc1; details: other: HEK293 stably transfected, 2 min uptake, 37 °C, pH 7.4
[4] = substrate: CC(C)(C)NCC(O)c1ccc(O)c(CO)n1; details: other: HEK293 stably transfected, 2 min uptake, 37 °C, pH 7.4
[5] = substrate: NCCc1c[nH]c2ccc(O)cc12; details: other: HEK293 stably transfected, 2 min uptake, 37 °C, pH 7.4
[6] = substrate: NCCc1c[nH]cn1; details: other: HEK293 stably transfected, 2 min uptake, 37 °C, pH 7.4
[7] = substrate: CC(C)NCC(O)c1cc(O)cc(O)c1; details: other: HEK293 stably transfected, 2 min uptake, 37 °C, pH 7.4
[8] = substrate: [H]/N=C(/N)N/C(=N/[H])NCCc1ccccc1; details: other: HEK293 stably transfected, 2 min uptake, 37 °C, pH 7.4
Procedure: (§1) Cells were cultured in Dulbecco’s Modified Eagle’s Medium supplemented with 10% fetal bovine serum, 100 U/ml penicillin, and 100 μg/ml streptomycin at 37 °C and 5% CO2 and were passaged twice a week.
(§2) At 48 h prior to the experiment, 6 × 10^5 cells were seeded per well in 12-well plates. When using transiently transfected cells, 5 × 10^5 T-REx-293 cells (Life Technologies) were seeded per well in 12-well plates 72 h prior to the experiment, and they were transfected 24 h later as described previously. Twelve-well plates were precoated with poly-D-lysine.
(§3) Cellular uptake experiments were performed at 37 °C and pH 7.4 using HBSS supplemented with 10 mM Hepes (in the following referred to as HBSS+). Cells were washed with 1 ml prewarmed (37 °C) HBSS+, and the uptake was initiated by adding 400 μl of prewarmed HBSS+ containing the substrate. Uptake was allowed for exactly 2 min and afterward stopped by adding 2 ml ice-cold HBSS+. Cells were washed twice with 2 ml ice-cold HBSS+ and lysed with 80% acetonitrile supplemented with internal standard, 0.1 N NaOH/0.1% SDS, or radioimmunoprecipitation buffer for LC–MS/MS, liquid scintillation counting, or fluorescence spectroscopy detection, respectively. Intracellular substrate concentrations were measured as described in the following and were then normalized to the amount of total protein in the samples as measured using the bicinchoninic acid assay ([51]).
(§4) For LC–MS/MS quantification of intracellular substrate concentrations, the cell lysate was centrifuged at 16,000g for 15 min, and 350 μl of supernatant was evaporated to dryness under nitrogen flow at 40 °C. The sample was reconstituted with 200 μl 0.1% formic acid, and between 2 and 30 μl were injected into the LC–MS/MS system (Table S1).
(§5) An API4000 QTRAP tandem mass spectrometer with ESI interface (AB SCIEX) was used, coupled to a Shimadzu Nexera X2 UHPLC system with LC 30AD pumps and SiL 30AC autosampler (Shimadzu).
(§6) Intracellular concentrations of radioactively labeled substrates MPP^+ and TEA^+ were quantified using liquid scintillation counting. To this end, 400 μl cell lysate was transferred into a 20 ml scintillation vial, 9 ml Aquasafe 500 Plus liquid scintillator (both Zinsser Analytics) was added, and the sample was measured in the Scintillation Counter LS6500 (Beckman Coulter).

[9] = substrate: NCCc1ccc(O)c(O)c1; details: other: HEK293 stably transfected, 2 min uptake, 37 °C, pH 7.4
[10] = substrate: CC(C)(C)NCC(O)c1cc(O)cc(O)c1; details: other: HEK293 stably transfected, 2 min uptake, 37 °C, pH 7.4
[11] = substrate: O=C(O[C@H]1C[C@H]2CC[C@@H](C1)[N+]21CCCC1)C(O)(c1ccccc1)c1ccccc1; details: pH 7.4; 37.0 °C
Procedure: as §1, §2, §3, §4, §5, §6

[12] = substrate: CC(C)(C)NCC(O)c1ccc(O)c(CO)c1; details: other: HEK293 stably transfected, 2 min uptake, 37 °C, pH 7.4
[13] = substrate: CNC[C@H](O)c1ccc(O)c(O)c1; details: other: HEK293 stably transfected, 2 min uptake, 37 °C, pH 7.4
[14] = substrate: CC(CCc1ccc(O)cc1)NCC(O)c1ccc(O)cc1; details: other: HEK293 stably transfected, 2 min uptake, 37 °C, pH 7.4
Procedure: as §1, §2, §3, §4, §5, §6

[15] = substrate: CC(Cc1ccc(O)cc1)NCC(O)c1cc(O)cc(O)c1; details: other: HEK293 stably transfected, 2 min uptake, 37 °C, pH 7.4
[16] = substrate: CNC(=C[N+](=O)[O-])NCCSCc1ccc(CN(C)C)o1; details: other: HEK293 stably transfected, 2 min uptake, 37 °C, pH 7.4
[17] = substrate: NC[C@H](O)c1ccc(O)c(O)c1; details: other: HEK293 stably transfected, 2 min uptake, 37 °C, pH 7.4
[18] = substrate: C[N+]1(CC2CC2)CC[C@]23c4c5ccc(O)c4O[C@H]2C(=O)CC[C@@]3(O)[C@H]1C5; details: other: HEK293 stably transfected, 2 min uptake, 37 °C, pH 7.4
Procedure: as §1, §2, §3, §4, §5, §6

[19] = substrate: C[N+](C)(C)CCO; details: other: HEK293 stably transfected, 2 min uptake, 37 °C, pH 7.4

B1: human OCT1 (Homo sapiens) (protein)
chain: MPTVDDILEQVGESGWFQKQAFLILCLLSAAFAPICVGIVFLGFTPDHHCQSPGVAELSQRCGWSPAEELNYTVPGLGPAGEAFLGQCRRYEVDWNQSALSCVDPLASLATNRSHLPLGPCQDGWVYDTPGSSIVTEFNLVCADSWKLDLFQSCLNAGFLFGSLGVGYFADRFGRKLCLLGTVLVNAVSGVLMAFSPNYMSMLLFRLLQGLVSKGNWMAGYTLITEFVGSGSRRTVAIMYQMAFTVGLVALTGLAYALPHWRWLQLAVSLPTFLFLLYYWCVPESPRWLLSQKRNTEAIKIMDHIAQKNGKLPPADLKMLSLEEDVTEKLSPSFADLFRTPRLRKRTFILMYLWFTDSVLYQGLILHMGATSGNLYLDFLYSALVEIPGAFIALITIDRVGRIYPMAMSNLLAGAACLVMIFISPDLHWLNIIIMCVGRMGITIAIQMICLVNAELYPTFVRNLGVMVCSSLCDIGGIITPFIVFRLREVWQALPLILFAVLGLLAAGVTLLLPETKGVALPETMKDAENLGRKAKPKENTIYLKVQTSEPSGT
Km [1]: 0.68 ± 0.12 µM | Vmax [1]: 0.000153 µmol/min/mg | Vmax/Km [1]: 226 µL/min/mg | Km [2]: 65.9 ± 15.1 µM | Vmax [2]: 0.00418 µmol/min/mg | Vmax/Km [2]: 63.6 µL/min/mg | Km [3]: 13.2 ± 3.71 µM | Km [4]: 29.2 ± 12.2 µM | Vmax [4]: 0.00202 µmol/min/mg | Vmax/Km [4]: 73.5 µL/min/mg | Km [5]: 663 ± 334 µM | Vmax [5]: 0.00618 µmol/min/mg | Vmax/Km [5]: 10 µL/min/mg | Km [6]: 4675 ± 2319 µM | Vmax [6]: 0.00512 µmol/min/mg | Vmax/Km [6]: 1.27 µL/min/mg | Km [7]: 530 ± 44.9 µM | Vmax [7]: 0.0016 µmol/min/mg | Vmax/Km [7]: 3.03 µL/min/mg | Km [8]: 18.7 ± 2.64 µM | Km [9]: 674 ± 194 µM | Vmax [9]: 0.000718 µmol/min/mg | Vmax/Km [9]: 1.04 µL/min/mg | Km [10]: 197 ± 54.1 µM | Vmax [10]: 0.0008 µmol/min/mg | Vmax/Km [10]: 3.81 µL/min/mg | Km [11]: 17.0 ± 5.46 µM | Vmax [11]: 0.00141 µmol/min/mg | Vmax/Km [11]: 86.7 µL/min/mg | Km [12]: 395 ± 56.8 µM | Vmax [12]: 0.00138 µmol/min/mg | Vmax/Km [12]: 3.55 µL/min/mg | Km [13]: 558 ± 411 µM | Vmax [13]: 0.00112 µmol/min/mg | Vmax/Km [13]: 2.69 µL/min/mg | Km [14]: 2.17 ± 0.59 µM | Vmax [14]: 0.000336 µmol/min/mg | Vmax/Km [14]: 162 µL/min/mg | Km [15]: 0.87 ± 0.19 µM | Km [16]: 55.7 ± 4.63 µM | Vmax [16]: 0.00409 µmol/min/mg | Vmax/Km [16]: 75 µL/min/mg

B2: mouse Oct1 (Mus musculus) (protein)
chain: MPTVDDVLEHVGEFGWFQKQAFLLLCLISASLAPIYVGIVFLGFTPDHHCRSPGVAELSQRCGWSPAEELNYTVPGLGSAGEASFLSQCMKYEVDWNQSTLDCVDPLSSLAANRSHLPLSPCEHGWVYDTPGSSIVTEFNLVCGDAWKVDLFQSCVNLGFFLGSLVVGYIADRFGRKLCLLVTTLVTSLSGVLTAVAPDYTSMLLFRLLQGMVSKGSWVSGYTLITEFVGSGYRRTTAILYQVAFTVGLVGLAGVAYAIPDWRWLQLAVSLPTFLFLLYYWFVPESPRWLLSQKRTTQAVRIMEQIAQKNRKVPPADLKMMCLEEDASERRSPSFADLFRTPSLRKHTLILMYLWFSCAVLYQGLIMHVGATGANLYLDFFYSSLVEFPAAFIILVTIDRIGRIYPIAASNLVAGAACLLMIFIPHELHWLNVTLACLGRMGATIVLQMVCLVNAELYPTFIRNLGMMVCSALCDLGGIFTPFMVFRLMEVWQALPLILFGVLGLSAGAVTLLLPETKGVALPETIEEAENLGRRKSKAKENTIYLQVQTGKSPHT
Km [1]: 6.34 ± 0.89 µM | Vmax [1]: 0.000737 µmol/min/mg | Vmax/Km [1]: 116 µL/min/mg | Km [2]: 65.7 ± 17.0 µM | Vmax [2]: 0.00325 µmol/min/mg | Vmax/Km [2]: 50.5 µL/min/mg | Km [3]: 9.81 ± 2.26 µM | Km [4]: 26.5 ± 12.5 µM | Vmax [4]: 0.00185 µmol/min/mg | Vmax/Km [4]: 76.3 µL/min/mg | Km [17]: 409 ± 60.7 µM | Vmax [17]: 0.00607 µmol/min/mg | Vmax/Km [17]: 11.6 µL/min/mg | Km [18]: 8.61 ± 3.12 µM | Km [5]: 257 ± 53.3 µM | Vmax [5]: 0.0162 ± 0.00276 µmol/min/mg | Vmax/Km [5]: 63.9 µL/min/mg | Km [6]: 497 ± 136 µM | Vmax [6]: 0.00596 µmol/min/mg | Vmax/Km [6]: 11.9 µL/min/mg | Km [7]: 89.8 ± 9.34 µM | Vmax [7]: 0.00424 µmol/min/mg | Vmax/Km [7]: 47.6 µL/min/mg | Km [8]: 7.53 ± 0.63 µM | Km [9]: 285 ± 3.25 µM | Vmax [9]: 0.00171 µmol/min/mg | Vmax/Km [9]: 6 µL/min/mg | Km [10]: 60.4 ± 18.7 µM | Vmax [10]: 0.00295 µmol/min/mg | Vmax/Km [10]: 48.7 µL/min/mg | Km [19]: 1286 ± 308 µM | Vmax [19]: 0.0166 ± 0.0059 µmol/min/mg | Vmax/Km [19]: 13 µL/min/mg | Km [11]: 1.81 ± 1.03 µM | Vmax [11]: 0.000163 µmol/min/mg | Vmax/Km [11]: 102 µL/min/mg | Km [12]: 52.2 ± 7.27 µM | Vmax [12]: 0.00197 µmol/min/mg | Vmax/Km [12]: 38.2 µL/min/mg | Km [13]: 242 ± 38.6 µM | Vmax [13]: 0.00755 µmol/min/mg | Vmax/Km [13]: 31.2 µL/min/mg | Km [14]: 2.54 ± 0.83 µM | Vmax [14]: 0.000481 µmol/min/mg | Vmax/Km [14]: 207 µL/min/mg | Km [15]: 6.90 ± 0.56 µM | Km [16]: 84.4 ± 27.0 µM | Vmax [16]: 0.0058 µmol/min/mg | Vmax/Km [16]: 74.1 µL/min/mg
